# Reference: US20160082105A1, “Antibody Buffering of a Ligand in Vivo” (ARROWSMITH TECHNOLOGIES CORPORATION, priority 2004, published 2016)
# Legend:
# [1] = Antibody buffering of lysozyme: free lysozyme in plasma after Protein A-Sepharose separation; type: in vivo, rat; details: lysozyme administered with D1.3, compared with lysozyme alone
# Protocol: (§1) Rats (300 g Sprague-Dawley males, Zivic Laboratories, Zelionople, Pa.) were implanted with a jugular vein cannula. The rats were freely moving throughout the experiment and were allowed access to food and water. Samples were prepared for infusion consisting of 43 μg ^14C-lysozyme with or without 450 μg D1.3 antibody. The volume was brought to 1 ml using sterile normal saline and the sample was incubated at 37° C. prior to use. The sample was infused through the jugular cannula over 5 minutes using an HP infusion pump. Following the infusion, the cannula was flushed with 0.2 ml of heparinized saline (250 units/ml) to reduce the risk of clotting. […] Blood samples (0.5 ml) were withdrawn from the cannula at various timepoints. The blood was immediately centrifuged to separate out the plasma. Plasma (0.1 ml) was mixed with 5 ml scintillation fluid and counted. Another 0.1 ml was used in bound vs. free lysozyme experiments described herein. The cellular pellet was mixed with scintillation fluid and counted also.
# Following blood sample centrifugation to separate out the plasma, 0.1 ml of plasma was loaded onto a 1.5 ml Protein A-Sepharose mini-column. The column was washed with 3 ml of PBS in 0.5 ml increments followed by 3 ml of 100 mM citric acid in 0.5 ml increments. The PBS (free lysozyme) and citric acid (antibody-bound lysozyme) fractions were collected separately for each timepoint. […]
# [2] = Antibody buffering of lysozyme: total 14C-lysozyme in rat plasma; type: in vivo
# Protocol: as §1
# Sprague-Dawley rats implanted with a jugular cannula were infused with 43 μg ^14C-lysozyme and either 450 μg or 900 μg of D1.3 antibody. The volume infused was brought up to 1 ml using sterile normal saline. The samples were prepared and infused and timepoints were taken and analyzed as described above. Bound vs. free separation analyses were not performed.
# Sprague-Dawley rats implanted with a jugular cannula were infused with 450 μg of D1.3 antibody and either 43 μg or 430 μg of ^14C-lysozyme. The samples were prepared, infused, and timepoints were taken and analyzed as described above.
# Two samples were prepared for infusion. The first sample, consisting of 450 μg D1.3 antibody diluted to 0.5 ml with sterile normal saline, was infused over 4 minutes using an HP infusion pump. The rat was allowed to move freely in its cage for 10 minutes to allow the antibody time to equilibrate within the circulation. Then the second sample, consisting of 43 μg ^14C-lysozyme made up to 0.5 ml using sterile normal saline, was infused over 4 minutes. The end of the second infusion was designated as time zero (0). Blood samples were taken and analyzed as described above.
# To determine the pharmacokinetic profile of lysozyme using a radioactive method of lysozyme detection, ^14C-lysozyme was infused through a jugular cannula into the bloodstream of a rat. Lysozyme elimination was followed through blood sampling at various time intervals spanning 4 hours. The plasma was collected after centrifugation and subjected to scintillation counting. […] Each rat in these and in the following studies was used only once to limit the possibility of an immune response to either the lysozyme or the antibody.
substance,measurement,setting,value
"lysozyme: hen egg lysozyme radioactively labeled with 14C, model protein ligand",free lysozyme pool in plasma,[1],remained at a more constant level
same,plasma β-half life of lysozyme,"[2]; 14C-lysozyme administered alone, jugular infusion",16.4 min
same,radioactivity in the cellular pellet of blood,[2]; 14C-lysozyme alone or with D1.3,Little radioactivity
same,plasma β-half life of lysozyme,[2]; 14C-lysozyme with equimolar D1.3,42.8 min
same,plasma β-half life of lysozyme,[2]; 14C-lysozyme with two times the molar amount of D1.3,61.3 min
same,total lysozyme level in plasma at later timepoints relative to equimolar group,[2]; D1.3 with ten times the molar concentration of 14C-lysozyme,about twice as high
same,total lysozyme concentration in plasma after sequential administration,[2]; equimolar lysozyme infused ten minutes after D1.3,quickly equilibrated to a level very similar to that attained when the D1.3 and lysozyme were administered together
